According to US20210179666A1, “CYCLIC PEPTIDES AND METHODS OF USE THEREOF” (Regents of the University of Minnesota, priority 2019, published 2021):

Biological target: human melanocortin 4 receptor (human) (UniProt P32245)
Test: cell-based or functional assay

Sequence of human melanocortin 4 receptor (human) (P32245 whole entry): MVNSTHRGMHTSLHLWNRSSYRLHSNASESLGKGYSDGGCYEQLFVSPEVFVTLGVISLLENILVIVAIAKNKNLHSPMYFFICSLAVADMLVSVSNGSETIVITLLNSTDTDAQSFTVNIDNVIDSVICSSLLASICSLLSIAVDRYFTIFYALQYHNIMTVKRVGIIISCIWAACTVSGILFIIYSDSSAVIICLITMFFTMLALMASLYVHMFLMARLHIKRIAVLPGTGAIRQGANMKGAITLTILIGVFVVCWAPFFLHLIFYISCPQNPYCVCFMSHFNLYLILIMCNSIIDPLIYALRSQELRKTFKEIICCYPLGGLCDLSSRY

pA2 (Schild analysis, agonist NDP-MSH, cAMP): 8.7
Substance: AgRP (from UniProt O00253 87-132) (ligand)
